# Experimental data from patent publication US12099068B2, “Biomarkers for graft-versus-host disease” (Incyte Corporation, priority 2018, dated 2024).
# System: plasma proteins
# Experiment: Plasma proteins modulated between baseline and day 28 in responders (CR, VGPR, PR; n = 19), Example 6 (Table 13)
# Format: in vivo, human
# Conditions: plasma protein (OLINK NPX); responders (CR, VGPR, PR; n = 19); itacitinib 200 mg or 300 mg QD with corticosteroids; day 28 vs baseline
# How it was run: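 Plasma at baseline/screening and day 28 profiled for >1000 proteins by OLINK proximity extension assay, reported as NPX (log2). Steroid-naive and steroid-refractory patients pooled. Paired and unpaired t tests, ANOVA and Pearson correlation applied; significance at P<0.05.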
Molecule,"Fold Change, Increased Expression from Baseline to Day 28","Fold Change, Decreased Expression from Baseline to Day 28"
"CPA2 (protein, UniProt P48052 115-419, looked up) Carboxypeptidase A2: SGNFNFGAYHTLEEISQEMDNLVAEHPGLVSKVNIGSSFENRPMNVLKFSTGGDKPAIWLDAGIHAREWVTQATALWTANKIVSDYGKDPSITSILDALDIFLLPVTNPDGYVFSQTKNRMWRKTRSKVSGSLCVGVDPNRNWDAGFGGPGASSNPCSDSYHGPSANSEVEVKSIVDFIKSHGKVKAFITLHSYSQLLMFPYGYKCTKLDDFDELSEVAQKAAQSLRSLHGTKYKVGPICSVIYQASGGSIDWSYDYGIKYSFAFELRDTGRYGFLLPARQILPTAEETWLGLKAIMEHVRDHPY",1.7185,–
"DKKL1 (protein, UniProt Q9UK85 31-242, looked up) Dickkopf-like protein 1: APIHDADAQESSLGLTGLQSLLQGFSRLFLKGNLLRGIDSLFSAPMDFRGLPGNYHKEENQEHQLGNNTLSSHLQIDKMTDNKTGEVLISENVVASIQPAEGSFEGDLKVPRMEEKEALVPIQKATDSFHTELHPRVAFWIIKLPRRRSHQDALEGGHWLSEKRHRLQAIRDGLRKGTHKDVLEEGTESSSHSRLSPRKTHLLYILRPSRQL",1.1495,–
"ST1A1 (protein, UniProt P50225 1-295, looked up) Sulfotransferase 1A1: MELIQDTSRPPLEYVKGVPLIKYFAEALGPLQSFQARPDDLLISTYPKSGTTWVSQILDMIYQGGDLEKCHRAPIFMRVPFLEFKAPGIPSGMETLKDTPAPRLLKTHLPLALLPQTLLDQKVKVVYVARNAKDVAVSYYHFYHMAKVHPEPGTWDSFLEKFMVGEVSYGSWYQHVQEWWELSRTHPVLYLFYEDMKENPKREIQKILEFVGRSLPEETVDFVVQHTSFKEMKKNPMTNYTTVPQEFMDHSISPFMRKGMAGDWKTTFTVAQNERFDADYAEKMAGCSLSFRSEL",–,−1.9523
"Ep-CAM (protein, UniProt P16422 24-314, looked up) Epithelial cell adhesion …: QEECVCENYKLAVNCFVNNNRQCQCTSVGAQNTVICSKLAAKCLVMKAEMNGSKLGRRAKPEGALQNNDGLYDPDCDESGLFKAKQCNGTSMCWCVNTAGVRRTDKDTEITCSERVRTYWIIIELKHKAREKPYDSKSLRTALQKEITTRYQLDPKFITSILYENNVITIDLVQNSSQKTQNDVDIADVAYYFEKDVKGESLFHSKKMDLTVNGEQLDLDPGQTLIYYVDEKAPEFSMQGLKAGVIAVIVVVVIAVVAGIVVLVISRKKRMAKYEKAEIKEMGEMHRELNA",1.403,–
"GRAP2 (protein, UniProt O75791 1-330, looked up) GRB2-related adapter protein 2: MEAVAKFDFTASGEDELSFHTGDVLKILSNQEEWFKAELGSQEGYVPKNFIDIQFPKWFHEGLSRHQAENLLMGKEVGFFIIRASQSSPGDFSISVRHEDDVQHFKVMRDNKGNYFLWTEKFPSLNKLVDYYRTNSISRQKQIFLRDRTREDQGHRGNSLDRRSQGGPHLSGAVGEEIRPSMNRKLSDHPPTLPLQQHQHQPQPPQYAPAPQQLQQPPQQRYLQHHHFHQERRGGSLDINDGHCGTGLGSEMNAALMHRRHTDPVQLQAAGRVRWARALYDFEALEDDELGFHSGEVVEVLDSSNPSWWTGRLHNKLGLFPANYVAPMTR",–,−1.6468
"FOXO1 (protein, UniProt Q12778 1-655, looked up) Forkhead box protein O1: MAEAPQVVEIDPDFEPLPRPRSCTWPLPRPEFSQSNSATSSPAPSGSAAANPDAAAGLPSASAAAVSADFMSNLSLLEESEDFPQAPGSVAAAVAAAAAAAATGGLCGDFQGPEAGCLHPAPPQPPPPGPLSQHPPVPPAAAGPLAGQPRKSSSSRRNAWGNLSYADLITKAIESSAEKRLTLSQIYEWMVKSVPYFKDKGDSNSSAGWKNSIRHNLSLHSKFIRVQNEGTGKSSWWMLNPEGGKSGKSPRRRAASMDNNSKFAKSRSRAAKKKASLQSGQEGAGDSPGSQFSKWPASPGSHSNDDFDNWSTFRPRTSSNASTISGRLSPIMTEQDDLGEGDVHSMVYPPSAAKMASTLPSLSEISNPENMENLLDNLNLLSSPTSLTVSTQSSPGTMMQQTPCYSFAPPNTSLNSPSPNYQKYTYGQSSMSPLPQMPIQTLQDNKSSYGGMSQYNCAPGLLKELLTSDSPPHNDIMTPVDPGVAQPNSRVLGQNVMMGPNSVMSTYGSQASHNKMMNPSSHTHPGHAQQTSAVNGRPLPHTVSTMPHTSGMNRLTQVKTPVQVPLPHPMQMSALGGYSSVSSCNGYGRMGLLHQEKLPSDLDGMFIERLDCDMESIIRNDLMDGDTLDFNFDNVLPNQSFPHSVKTTTHSWVSG",–,−1.3557
"NBN (protein, UniProt O60934 1-754, looked up) Nibrin: MWKLLPAAGPAGGEPYRLLTGVEYVVGRKNCAILIENDQSISRNHAVLTANFSVTNLSQTDEIPVLTLKDNSKYGTFVNEEKMQNGFSRTLKSGDGITFGVFGSKFRIEYEPLVACSSCLDVSGKTALNQAILQLGGFTVNNWTEECTHLVMVSVKVTIKTICALICGRPIVKPEYFTEFLKAVESKKQPPQIESFYPPLDEPSIGSKNVDLSGRQERKQIFKGKTFIFLNAKQHKKLSSAVVFGGGEARLITEENEEEHNFFLAPGTCVVDTGITNSQTLIPDCQKKWIQSIMDMLQRQGLRPIPEAEIGLAVIFMTTKNYCDPQGHPSTGLKTTTPGPSLSQGVSVDEKLMPSAPVNTTTYVADTESEQADTWDLSERPKEIKVSKMEQKFRMLSQDAPTVKESCKTSSNNNSMVSNTLAKMRIPNYQLSPTKLPSINKSKDRASQQQQTNSIRNYFQPSTKKRERDEENQEMSSCKSARIETSCSLLEQTQPATPSLWKNKEQHLSENEPVDTNSDNNLFTDTDLKSIVKNSASKSHAAEKLRSNKKREMDDVAIEDEVLEQLFKDTKPELEIDVKVQKQEEDVNVRKRPRMDIETNDTFSDEAVPESSKISQENEIGKKRELKEDSLWSAKEISNNDKLQDDSEMLPKKLLLTEFRSLVIKNSTSRNPSGINDDYGQLKNFKKFKKVTYPGAGKLPHIIGGSDLIAHHARKNTELEEWLRQEMEVQNQHAKEESLADDLFRYNPYLKRRR",–,−1.5879
"NEP (protein, UniProt P08473 2-750, looked up) Neprilysin: GKSESQMDITDINTPKPKKKQRWTPLEISLSVLVLLLTIIAVTMIALYATYDDGICKSSDCIKSAARLIQNMDATTEPCTDFFKYACGGWLKRNVIPETSSRYGNFDILRDELEVVLKDVLQEPKTEDIVAVQKAKALYRSCINESAIDSRGGEPLLKLLPDIYGWPVATENWEQKYGASWTAEKAIAQLNSKYGKKVLINLFVGTDDKNSVNHVIHIDQPRLGLPSRDYYECTGIYKEACTAYVDFMISVARLIRQEERLPIDENQLALEMNKVMELEKEIANATAKPEDRNDPMLLYNKMTLAQIQNNFSLEINGKPFSWLNFTNEIMSTVNISITNEEDVVVYAPEYLTKLKPILTKYSARDLQNLMSWRFIMDLVSSLSRTYKESRNAFRKALYGTTSETATWRRCANYVNGNMENAVGRLYVEAAFAGESKHVVEDLIAQIREVFIQTLDDLTWMDAETKKRAEEKALAIKERIGYPDDIVSNDNKLNNEYLELNYKEDEYFENIIQNLKFSQSKQLKKLREKVDKDEWISGAAVVNAFYSSGRNQIVFPAGILQPPFFSAQQSNSLNYGGIGMVIGHEITHGFDDNGRNFNKDGDLVDWWTQQSASNFKEQSQCMVYQYGNFSWDLAGGQHLNGINTLGENIADNGGLGQAYRAYQNYIKKNGEEKLLPGLDLNHKQLFFLNFAQVWCGTYRPEYAVNSIKTDVHSPGNFRIIGTLQNSAEFSEAFHCRKNSYMNPEKKCRVW",1.8376,–
